The source of these data is patent publication US20260226189A1 (PHILOGEN S P A, published 2026).

Assay [1] deals with T1, human carcinoembryonic antigen (CEA, CEACAM5) on cells or tumor tissue (human, UniProt P06731 35-685).
T1 sequence (looked up): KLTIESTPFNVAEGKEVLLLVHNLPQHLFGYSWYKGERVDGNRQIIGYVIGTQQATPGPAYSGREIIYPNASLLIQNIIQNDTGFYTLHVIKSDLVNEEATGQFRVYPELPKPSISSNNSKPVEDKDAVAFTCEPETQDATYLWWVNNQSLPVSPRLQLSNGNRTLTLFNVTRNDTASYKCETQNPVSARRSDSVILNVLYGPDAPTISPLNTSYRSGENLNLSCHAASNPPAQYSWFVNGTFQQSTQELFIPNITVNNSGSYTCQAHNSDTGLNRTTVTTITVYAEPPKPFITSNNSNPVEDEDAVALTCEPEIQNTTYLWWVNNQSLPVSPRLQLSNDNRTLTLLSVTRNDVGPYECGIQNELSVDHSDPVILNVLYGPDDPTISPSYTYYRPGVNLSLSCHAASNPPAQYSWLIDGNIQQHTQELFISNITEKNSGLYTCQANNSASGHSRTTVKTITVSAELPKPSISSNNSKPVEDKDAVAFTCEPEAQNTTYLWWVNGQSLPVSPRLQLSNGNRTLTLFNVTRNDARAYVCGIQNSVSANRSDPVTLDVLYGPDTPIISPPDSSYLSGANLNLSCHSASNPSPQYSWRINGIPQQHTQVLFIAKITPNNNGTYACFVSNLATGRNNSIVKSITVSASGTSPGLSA
As to the kind of experiment: cell-based or functional assay.

Assay [2] addresses T2, human CEA (N-terminal domain) recombinant fragment containing a C-terminal 6xHis tag and a N-terminal BirA … (human, site specifically biotinylated using BirA (E. coli biotin ligase) at the BirA target sequence).
T2 construct: Expressed in CHO-S cells and immobilised on a streptavidin chip for all BIAcore runs; also called biotinylated CEA; human CEA N-terminal fragment
T2 chain: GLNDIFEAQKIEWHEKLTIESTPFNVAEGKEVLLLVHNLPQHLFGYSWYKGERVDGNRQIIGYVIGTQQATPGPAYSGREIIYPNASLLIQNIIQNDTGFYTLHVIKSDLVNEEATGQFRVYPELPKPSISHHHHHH
As to the kind of experiment: SPR (BIAcore X100), monomeric scFv over biotinylated CEA N-terminal domain on streptavidin chip. (In general: In SPR one partner is held on a chip, and binding of the other changes the refractive index at the surface.)

Assay [3] deals with T1, human carcinoembryonic antigen (CEA, …). Nature of the assay: flow cytometry titration on CT26-CEA cells, IgG1, PE anti-human IgG Fc detection; the CT26-wt curve stays near 0.
Assay [4] deals with T3, CEACAM6 transiently expressed on CHO cells (UniProt P40199 35-320, limits assumed).
T3 construct: whole, on cells
T3 sequence (looked up): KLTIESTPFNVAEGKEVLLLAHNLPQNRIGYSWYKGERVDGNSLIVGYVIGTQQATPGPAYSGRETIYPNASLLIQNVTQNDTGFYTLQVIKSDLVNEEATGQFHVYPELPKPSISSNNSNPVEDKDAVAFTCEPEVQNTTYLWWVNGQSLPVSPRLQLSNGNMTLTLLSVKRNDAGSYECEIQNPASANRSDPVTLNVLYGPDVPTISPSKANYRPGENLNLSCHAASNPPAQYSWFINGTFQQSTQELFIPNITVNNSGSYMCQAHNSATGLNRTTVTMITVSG
As to the kind of experiment: flow cytometry contour plots (SSC against fluorescence) on CHO cells transiently expressing CEACAM6.

The target in assay [5] is T4, CEACAM1 transiently expressed on CHO cells (UniProt P13688 35-526, limits assumed).
T4 construct: whole, on cells
T4 sequence (looked up): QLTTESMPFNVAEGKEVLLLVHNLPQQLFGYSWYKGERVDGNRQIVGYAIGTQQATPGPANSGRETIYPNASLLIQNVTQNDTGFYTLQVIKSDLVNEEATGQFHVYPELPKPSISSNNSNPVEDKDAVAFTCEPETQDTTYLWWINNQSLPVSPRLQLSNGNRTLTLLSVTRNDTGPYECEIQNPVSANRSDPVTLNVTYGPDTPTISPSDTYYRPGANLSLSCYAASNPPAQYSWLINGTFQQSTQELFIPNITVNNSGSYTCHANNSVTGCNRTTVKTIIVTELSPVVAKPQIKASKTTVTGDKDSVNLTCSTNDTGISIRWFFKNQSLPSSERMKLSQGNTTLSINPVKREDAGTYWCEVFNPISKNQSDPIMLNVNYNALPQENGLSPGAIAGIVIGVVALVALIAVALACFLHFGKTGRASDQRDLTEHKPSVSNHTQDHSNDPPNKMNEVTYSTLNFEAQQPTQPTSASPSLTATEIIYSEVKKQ
As to the kind of experiment: flow cytometry contour plots (SSC against fluorescence) on CHO cells transiently expressing CEACAM1. For orientation: Flow cytometry measures light scatter and fluorescence of single cells or particles in a stream.

Assay [6] concerns the target T1, human carcinoembryonic antigen (CEA, …). As to the kind of experiment: immunofluorescence on LS174T tumor cryosections, FITC-labelled IgG1.

Changes are numbered by the printed parent chain.

B1: PEA2-anti-CD3 (PUB4) bispecific antibody in scFv-IgG4 KIH format (bispecific antibody)
heavy 1: EVQLVESGGGLVQPGGSLRLSCAASGFTFSTYAMNWVRQAPGKGLEWVGRIRSKYNNYATYYADSVKDRFTISRDDSKNSLYLQMNSLKTEDTAVYYCVRHGNFGNSYVSWFAYWGQGTLVTVSSGGGGSGGGGSGGGGSQAVVTQEPSLTVSPGGTVTLTCRSSTGAVTTSNYANWVQQKPGQAPRGLIGGTNKRAPWTPARFSGSLLGGKAALTITGAQAEDEADYYCALWYSNLWVFGGGTKLTVLGGGGSGGGGSGGGGSEVQLLESGGGLVQPGGSLRLSCAASGFTFSRTAMSWVRQAPGKGLEWVSAIDYDGGVTYYADSVKGRFTISRDNSKNTLYLQMNSLRAEDTAVYYCAKLTYARFDYWGQGTLVTVSSASTKGPSVFPLAPCSRSTSESTAALGCLVKDYFPEPVTVSWNSGALTSGVHTFPAVLQSSGLYSLSSVVTVPSSSLGTKTYTCNVDHKPSNTKVDKRVESKYGPPCPPCPAPEFLGGPSVFLFPPKPKDTLMISRTPEVTCVVVDVSQEDPEVQFNWYVDGVEVHNAKTKPREEQFNSTYRVVSVLTVLHQDWLNGKEYKCKVSNKGLPSSIEKTISKAKGQPREPQVYTLPPCQEEMTKNQVSLWCLVKGFYPSDIAVEWESNGQPENNYKTTPPVLDSDGSFFLYSRLTVDKSRWQEGNVFSCSVMHEALHNHYTQKSLSLSLGK
heavy 2: EVQLLESGGGLVQPGGSLRLSCAASGFTFSRTAMSWVRQAPGKGLEWVSAIDYDGGVTYYADSVKGRFTISRDNSKNTLYLQMNSLRAEDTAVYYCAKLTYARFDYWGQGTLVTVSSASTKGPSVFPLAPCSRSTSESTAALGCLVKDYFPEPVTVSWNSGALTSGVHTFPAVLQSSGLYSLSSVVTVPSSSLGTKTYTCNVDHKPSNTKVDKRVESKYGPPCPPCPAPEFLGGPSVFLFPPKPKDTLMISRTPEVTCVVVDVSQEDPEVQFNWYVDGVEVHNAKTKPREEQFNSTYRVVSVLTVLHQDWLNGKEYKCKVSNKGLPSSIEKTISKAKGQPREPQVCTLPPSQEEMTKNQVSLSCAVKGFYPSDIAVEWESNGQPENNYKTTPPVLDSDGSFFLVSRLTVDKSRWQEGNVFSCSVMHEALHNHYTQKSLSLSLGK
light: EIVLTQSPGTLSLSPGERATLSCRASQSVSQNHLAWYQQKPGQAPRLLIYLASRRHTGIPDRFSGSGSGTDFTLTISRLEPEDFAVYYCQQSGRVPWTFGQGTKVEIKRTVAAPSVFIFPPSDEQLKSGTASVVCLLNNFYPREAKVQWKVDNALQSGNSQESVTEQDSKDSTYSLSSTLTLSKADYEKHKVYACEVTHQGLSSPVTKSFNRGEC
Consider B1, for which, in assay [1], the “EC50, target cell killing (LS174T cells with human PBMCs, 5 days)” value worked out at 140000 nM.

B2: PEA2-anti-CD3 (PUB4) bispecific antibody in scDb-scFv with Fc KIH format (bispecific antibody, human IgG4 S228P)
heavy 1: EVQLLESGGGLVQPGGSLRLSCAASGFTFSRTAMSWVRQAPGKGLEWVSAIDYDGGVTYYADSVKGRFTISRDNSKNTLYLQMNSLRAEDTAVYYCAKLTYARFDYWGQGTLVTVSSGGSGGEIVLTQSPGTLSLSPGERATLSCRASQSVSQNHLAWYQQKPGQAPRLLIYLASRRHTGIPDRFSGSGSGTDFTLTISRLEPEDFAVYYCQQSGRVPWTFGQGTKVEIKGGGGSGGGGSGGGGSEVQLLESGGGLVQPGGSLRLSCAASGFTFSRTAMSWVRQAPGKGLEWVSAIDYDGGVTYYADSVKGRFTISRDNSKNTLYLQMNSLRAEDTAVYYCAKLTYARFDYWGQGTLVTVSSGGSGGEIVLTQSPGTLSLSPGERATLSCRASQSVSQNHLAWYQQKPGQAPRLLIYLASRRHTGIPDRFSGSGSGTDFTLTISRLEPEDFAVYYCQQSGRVPWTFGQGTKVEIKGSESKYGPPCPPCPAPEFLGGPSVFLFPPKPKDTLMISRTPEVTCVVVDVSQEDPEVQFNWYVDGVEVHNAKTKPREEQFNSTYRVVSVLTVLHQDWLNGKEYKCKVSNKGLPSSIEKTISKAKGQPREPQVYTLPPCQEEMTKNQVSLWCLVKGFYPSDIAVEWESNGQPENNYKTTPPVLDSDGSFFLYSRLTVDKSRWQEGNVFSCSVMHEALHNHYTQKSLSLSLGK
heavy 2: EVQLVESGGGLVQPGGSLRLSCAASGFTFSTYAMNWVRQAPGKGLEWVGRIRSKYNNYATYYADSVKDRFTISRDDSKNSLYLQMNSLKTEDTAVYYCVRHGNFGNSYVSWFAYWGQGTLVTVSSGGGGSGGGGSGGGGSQAVVTQEPSLTVSPGGTVTLTCRSSTGAVTTSNYANWVQQKPGQAPRGLIGGTNKRAPWTPARFSGSLLGGKAALTITGAQAEDEADYYCALWYSNLWVFGGGTKLTVLGSESKYGPPCPPCPAPEFLGGPSVFLFPPKPKDTLMISRTPEVTCVVVDVSQEDPEVQFNWYVDGVEVHNAKTKPREEQFNSTYRVVSVLTVLHQDWLNGKEYKCKVSNKGLPSSIEKTISKAKGQPREPQVCTLPPSQEEMTKNQVSLSCAVKGFYPSDIAVEWESNGQPENNYKTTPPVLDSDGSFFLVSRLTVDKSRWQEGNVFSCSVMHEALHNHYTQKSLSLSLGK
Consider B2, for which, in assay [1], the “EC50, target cell killing (LS174T cells with human PBMCs, 5 days)” value is 40 PM and the “fold potency in target cell killing against the scFvCD3-IgGCEA KIH format” value amounted to 3.5 fold.

B3: F7 antibody in scFv format (scFv)
scFv: EVQLLESGGGLVQPGGSLRLSCAASGFTFSRTAMSWVRQAPGKGLEWVSAISGSGGSTYYADSVKGRFTISRDNSKNTLYLQMNSLRAEDTAVYYCAKLTYARFDYWGQGTLVTVSSGGGGSGGGGSGGGGEIVLTQSPGTLSLSPGERATLSCRASQSVSFPYLAWYQQKPGQAPRLLIYGASSRATGIPDRFSGSGSGTDFTLTISRLEPEDFAVYYCQQSGRVPWTFGQGTKVEIK
notes: also called F7 scFv
As to B3, the Kd in assay [2] was determined as 50 nM.

B4: PEA2 antibody in scFv format (scFv)
scFv: B3 scFv with S52D, G53Y, S54D, S57V, F162Q, P163N, Y164H, G182L, S185R, A187H
notes: also called PEA2 scFv
For the molecule B4, the Kd in assay [2] was found to be 7.7 nM.

B5: F7 antibody in IgG1 format (antibody, V domains shown)
VH: EVQLLESGGGLVQPGGSLRLSCAASGFTFSRTAMSWVRQAPGKGLEWVSAISGSGGSTYYADSVKGRFTISRDNSKNTLYLQMNSLRAEDTAVYYCAKLTYARFDYWGQGTLVTVSS
VL: EIVLTQSPGTLSLSPGERATLSCRASQSVSFPYLAWYQQKPGQAPRLLIYGASSRATGIPDRFSGSGSGTDFTLTISRLEPEDFAVYYCQQSGRVPWTFGQGTKVEIK
notes: also called F7 IgG
As for B5, the EC50 in assay [3] was found to be 0.77 nM. That is a sub-nanomolar value.

B6: PEA2 antibody in IgG1 format (antibody, V domains shown)
VH: B5 VH with S52D, G53Y, S54D, S57V
VL: EIVLTQSPGTLSLSPGERATLSCRASQSVSQNHLAWYQQKPGQAPRLLIYLASRRHTGIPDRFSGSGSGTDFTLTISRLEPEDFAVYYCQQSGRVPWTFGQGTKVEIKR
notes: also called PEA2 IgG1; PEA2 (IgG1)
The molecule B6 registered an EC50 in assay [3] of 0.29 nM.

B7: PEA2 antibody as used in Example 8 (flow cytometry on transfected CHO cells) (antibody, V domains shown)
VH: B5 VH with S52D, G53Y, S54D, S57V
VL: B5 VL with F31Q, P32N, Y33H, G51L, S54R, A56H
notes: also called antibody PEA2
In the case of B7, the binding result in assay [4] and in assay [5] was “no binding (tested: 50 nM)” each time.

B8: anti-hen egg lysozyme antibody KSF in IgG1 format (antibody, V domains shown)
VH: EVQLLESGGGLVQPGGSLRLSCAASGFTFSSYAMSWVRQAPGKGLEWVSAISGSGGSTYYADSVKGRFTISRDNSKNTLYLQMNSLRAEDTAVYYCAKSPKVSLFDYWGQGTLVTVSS
VL: SSELTQDPAVSVALGQTVRITCQGDSLRSYYASWYQQKPGQAPVLVIYGKNNRPSGIPDRFSGSSSGNTASLTITGAQAEDEADYYCNSSPLNRLAVVFGGGTKLTVLG
notes: Negative control; It was conjugated to FITC for the immunofluorescence experiments; also called KSF IgG1; KSF (IgG1)
Take B8: in assay [6], the binding result is on record as “no binding (tested: 10 ug/mL)”.

For orientation: Kd means the concentration at which binding is half-saturated. Broadly, the EC50 is the concentration that produces a half-maximal response. The low end stands for higher potency in that assay, the high end for lower potency in that assay.
